These results are taken from article PMC4536467, “A high affinity RIM-binding protein/Aplip1 interaction prevents the formation of ectopic axonal active zones” (eLife, 2015).

One test deals with RBP SH3-II+III. The experiment in a line: Isothermal titration calorimetry (ITC), peptide titrated into tandem RBP SH3-II+III. The class given is binding, Drosophila. The settings on record: second and third SH3 domain of RBP. The method, then:
ITC experiments were performed at 25°C on an iTC200 microcalorimeter (Malvern Instruments Ltd., United Kingdom). The same peptides were employed as used for the co-crystallization experiments (see below). Lyophilized peptides were resuspended in the final buffer of the proteins (10 mM Tris-HCl pH 7.4, 100 mM NaCl). RBP SH3-II and SH3-III were both provided at a concentration of 150 µM, RBP SH3-II+III was provided at 78 µM. The proteins were titrated with 16 injections of 2.5 µl of either Aplip1, Cac, RIM1 or RIM2 peptide at a concentration of 2 mM with 2-min intervals. The released heat was obtained by integrating the calorimetric output curves. Binding parameters were calculated using the Origin5 software using the ‘One Set of Sites’ curve fitting model provided by the software.
For crystallization experiment the RBP SH3-II was concentrated to 56 mg/ml and the RBP SH3-III to 62 mg/ml. The same peptides as for ITC measurements were used and synthesized at the Leibniz Institute for Molecular Pharmacology with N-terminal acetylation and C-terminal amidation. The unsolubilized peptides were mixed in a fivefold molar excess with the protein solution and incubated for 2 hr on ice. Insoluble peptide was removed by centrifugation (16,000×g for 1 min) prior to crystallization experiments. All crystallization experiments were carried out at 291 K in a sitting drop setup. […]

The subject of the next test is RBP SH3-I. The experiment in a line: Isothermal titration calorimetry (ITC), peptide titrated into RBP SH3-I. The class given is binding, Drosophila. The following applies: 25°C, result in words. For orientation: ITC needs no label: the signal is the heat of the interaction.
A further test deals with RBP SH3-II. Kind of test: Semi-quantitative liquid Y2H ß-galactosidase assay, bait RBP SH3-II. Type of test: cell-based, Drosophila. The following applies: n = 3 independent experiments, mean ± SEM. An excerpt:
(§1) The plasmids (pP6 and pB27) encode tryptophan (Trp) and leucine (Leu) biosynthesis genes, and were successfully double transformed into the TATA strain lacking genes for synthesis of Leu and Trp which can be followed by positive growth in LT media. Reporter genes for the protein–protein interaction are HIS3, which can be later detected by growth on plates lacking histidin, as well as lacZ which allows the detection of interaction in a more quantitative fashion with a β-galactosidase assay. To transform the yeast cells with the pP6 and pB27 vector respectively the LiAc/single strand DNA/PEG technique was used ([Gietz and Schiestl, 2007]).
(§2) The assay was carried out as described in JH Miller ‘Experiments in Molecular Genetics’ 1972 Cold Spring Harbor Laboratories pages 352–355.
(§3) The RBP constructs for Y2H were cloned into pB27 bait vector. The RBP cDNA clone AT04807 (Drosophila Genomics Resource Centre) was used as a template for PCR reaction. For amplification the following primers were used: […]

The subject of the next test is RBP SH3-III. Kind of test: Semi-quantitative liquid Y2H ß-galactosidase assay, bait RBP SH3-III. Type of test: cell-based, Drosophila. The following applies: n = 3 independent experiments, mean ± SEM.
Excerpt: as §1, §2, §3

The test system of test [1] is RBP SH3-II* (Prolin1373 → Leucin). The experiment in a line: Semi-quantitative liquid Y2H ß-galactosidase assay, bait point-mutated RBP SH3-II*. The settings on record: n = 3 independent experiments, mean ± SEM. The class given is cell-based, Drosophila.
Excerpt: as §1, §2
(§4) By applying the site-directed mutagenesis strategy, different constructs were designed for RBP using mutated primers. Mutagenesis was carried out by Dr Martin Meixner (SMB. GmbH, Germany,). The following point mutations were used:
RBP SH3-II*: Prolin1373 → Leucin

In test [2] the test system is RBP SH3-III* (Prolin1500 → Leucin). Kind of test: Semi-quantitative liquid Y2H ß-galactosidase assay, bait point-mutated RBP SH3-III*. Type of test: cell-based, Drosophila. The settings on record: n = 3 independent experiments, mean ± SEM.
Excerpt: as §1, §2, §4
RBP SH3-III*: Prolin1500 → Leucin

In test [3] the target is T1, RBP SH3-II+III (ITC construct) (D. melanogaster).
T1 chain: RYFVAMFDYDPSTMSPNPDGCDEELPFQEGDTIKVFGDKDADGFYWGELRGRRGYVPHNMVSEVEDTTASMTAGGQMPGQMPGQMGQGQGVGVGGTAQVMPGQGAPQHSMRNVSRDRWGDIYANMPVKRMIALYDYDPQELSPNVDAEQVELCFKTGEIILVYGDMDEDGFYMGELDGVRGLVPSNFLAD
The experiment in a line: ITC.

The target in test [4] is T2, RBP SH3-III (ITC construct) (D. melanogaster).
T2 chain: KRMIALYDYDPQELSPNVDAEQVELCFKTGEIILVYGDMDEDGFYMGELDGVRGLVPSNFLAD
Kind of test: ITC.

Test [5] addresses T3, RBP SH3-II (residue 1318–1382; ITC and crystallisation construct) (D. melanogaster).
T3 chain: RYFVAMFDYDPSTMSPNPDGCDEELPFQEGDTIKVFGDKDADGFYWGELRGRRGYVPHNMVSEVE
Kind of test: ITC.

The target of test [6] is T4, RBP SH3-II (residue 1318–1382; ITC and crystallisation construct) (D. melanogaster).
T4 construct: pGEX-6P1, EcoRI/XhoI; also called RBP-BP SH3-II; source: E. coli BL21-CodonPlus-RIL, purified (glutathione sepharose, PreScission cleavage, Superdex 75); not shown: GST, N-terminal, cleaved
T4 chain: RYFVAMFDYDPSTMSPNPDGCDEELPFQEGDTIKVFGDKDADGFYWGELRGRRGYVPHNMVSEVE
Kind of test: ITC; 25°C, iTC200; RBP SH3-II and SH3-III at 150 µM, SH3-II+III at 78 µM in the cell, titrated with 16 injections of 2.5 µl peptide at 2 mM; 10 mM Tris-HCl pH 7.4, 100 mM NaCl; 'One Set of Sites' model. The settings on record: both partners purified.

Test [7] concerns the target T5, RBP SH3-III (ITC construct) (D. melanogaster).
T5 construct: it may be the same protein; also called RBP-BP SH3-III
T5 chain: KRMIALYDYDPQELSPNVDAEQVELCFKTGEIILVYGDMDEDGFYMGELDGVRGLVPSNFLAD
The description is as above. The settings on record: both partners purified.

For test [8], the target named is T4, RBP SH3-II (residue 1318–1382; ITC and …). The experiment in a line: crystal structure; co-crystallisation of the SH3 domain with a fivefold molar excess of peptide, sitting drop, 291 K. The settings on record: both partners purified.
For test [9], the target named is T6, RBP SH3-III (residue 1441–1507; crystallisation construct) (D. melanogaster).
T6 construct: pGEX-6P1, EcoRI/XhoI; linker residues may remain at the N-terminus after PreScission cleavage; source: E. coli BL21-CodonPlus-RIL, purified (glutathione sepharose, PreScission cleavage, Superdex 75); not shown: GST, N-terminal, cleaved
T6 chain: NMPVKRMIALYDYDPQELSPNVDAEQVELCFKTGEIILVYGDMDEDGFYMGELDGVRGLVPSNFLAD
The description is as above. The settings on record: both partners purified.

Test [10] addresses T7, RBP SH3-II+III (ITC construct) (D. melanogaster).
T7 construct: Cloning and purification of this construct are not described; also called tandem SH3-II+III; RBP-BP SH3-II+SH3-III
T7 chain: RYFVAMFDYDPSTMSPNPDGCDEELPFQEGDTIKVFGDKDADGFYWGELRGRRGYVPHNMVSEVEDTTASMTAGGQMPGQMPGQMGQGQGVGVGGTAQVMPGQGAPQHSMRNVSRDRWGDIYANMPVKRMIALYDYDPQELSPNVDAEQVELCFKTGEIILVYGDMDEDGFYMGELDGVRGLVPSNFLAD
Kind of test: ITC; 25°C, iTC200; RBP SH3-II and SH3-III at 150 µM, SH3-II+III at 78 µM in the cell, titrated with 16 injections of 2.5 µl peptide at 2 mM; 10 mM Tris-HCl pH 7.4, 100 mM NaCl; 'One Set of Sites' model. The following applies: both partners purified.

On to Ac-TRRRRKLPEIPKNKK-NH2 [Aplip1], for which, in the test on RBP SH3-II+III, the “affinity relative to RBP binding of its synaptic ligands (Ca2+ channels/RIM)” value was “more than 10 fold”. Besides, the “binding to RBP SH3-I” value in the test with RBP SH3-I was “could not detect any binding”.

On to “LLGGSNFGSLADEFRNGGGGGIPPAVRSGQQRSFLSLKCGYLMDEDSSPDSERMQSLGDVDSGHSTAHSPNDFKSMSPQITSPVSQSPFPPPFGGVPFGQ [Aplip1-PxxP2, Y2H prey fragment of Aplip1 (100 AA) containing only the second PxxP motif]”, for which the “mean ß-Gal4 units: RBP SH3-II” value in the test with RBP SH3-II is 0.2 ± 0.0 ß-Gal4 units. In the test with RBP SH3-III, the “mean ß-Gal4 units: RBP SH3-III” value was 0.2 ± 0.1 ß-Gal4 units.

“EDDELGDGLKVTLSSDGSLDTNDSFNSHRHHPLNHQDAIGGFLGMDTSGLGGNSAPVTIGASTDLLAPNTAATRRRRKLAEIAKNKKSSILHLLGGSNFGSLADEFRNGGGGGIPPAVRSGQQRSFLSLKCGYLMDEDS [Aplip1-AxxA1, Y2H prey fragment of Aplip1 (139 AA) with mutated first PxxP motif (P156 → A; P159 → A)]”: the “mean ß-Gal4 units: RBP SH3-II” value in the test with RBP SH3-II is recorded as 0.1 ± 0.1 ß-Gal4 units. Besides, the “mean ß-Gal4 units: RBP SH3-III” value with RBP SH3-III is on record as 0.2 ± 0.0 ß-Gal4 units.

As for “EDDELGDGLKVTLSSDGSLDTNDSFNSHRHHPLNHQDAIGGFLGMDTSGLGGNSAPVTIGASTDLLAPNTAATRRRRKLPEIPKNKKSSILHLLGGSNFGSLADEFRNGGGGGIPPAVRSGQQRSFLSLKCGYLMDEDS [Aplip1-PxxP1, Y2H prey fragment of Aplip1 (139 AA) containing only the first PxxP motif]”, the “mean ß-Gal4 units: RBP SH3-II” value in the test on RBP SH3-II is recorded as 24.3 ± 6.6 ß-Gal4 units. The “mean ß-Gal4 units: RBP SH3-III” value in the test with RBP SH3-III is on record as 29.1 ± 7.4 ß-Gal4 units. In test [1], the “mean ß-Gal4 units: RBP SH3-II*” value is on record as 0.1 ± 0.0 ß-Gal4 units. Besides, the “mean ß-Gal4 units: RBP SH3-III*” value in test [2] was 0.1 ± 0.0 ß-Gal4 units.

B1: RIM1 peptide (GRQLPQVPVRSG) (peptide)
peptide: Ac-GRQLPQVPVRSG-NH2
notes: PxxP peptide named RIM1; May be a mammalian RIM1 motif or one of two motifs of Drosophila RIM; source: synthetic peptide (Leibniz Institute for Molecular Pharmacology)
As to B1, the Kd in test [3] turned out to be 16 µM; in test [4] it was 8.4 µM; in test [5], 10.4 µM. Also, the binding result in test [6] and in test [7] was “binds” throughout.

B2: Cac peptide (1685-IGRRLPPTPSKPSTL-1699) (peptide)
peptide: Ac-IGRRLPPTPSKPSTL-NH2
notes: also called Cacophony peptide; Cac-derived peptide; source: synthetic peptide (Leibniz Institute for Molecular Pharmacology)
For B2, the results for the dissociation constant (Kd) in test [3], in test [4] and in [5] were 31.3 µM, 17.3 µM and 20.2 µM, respectively. The binding result in [8], in test [9] and in test [7] was “binds” in each case.

B3: Aplip-PxxP1 peptide (149-TRRRRKLPEIPKNKK-163) (peptide)
peptide: Ac-TRRRRKLPEIPKNKK-NH2
notes: Aplip1, D. melanogaster, residues 149-163 with the first PxxP motif; also called Aplip1 peptide; Aplip1-PxxP1 peptide; source: synthetic peptide (Leibniz Institute for Molecular Pharmacology)
Turning to B3, the Kd amounted to 0.54 µM in test [3], 1.4 µM in [4] and 4.1 µM in test [5]. The binding result in test [8], in test [7] and in test [10] was “binds” in each case.

B4: RIM2 peptide (GRQLPQLPPKGT) (peptide)
peptide: Ac-GRQLPQLPPKGT-NH2
notes: PxxP peptide named RIM2; May be a mammalian RIM2 motif or one of two motifs of Drosophila RIM; source: synthetic peptide (Leibniz Institute for Molecular Pharmacology)
Regarding B4, the Kd in test [3] amounted to 35.7 µM; in test [4] it was 12.5 µM; in test [5], 20 µM. Also, the binding result in test [6] and in test [7] was “binds” in each case.

What is called Kd is a measure of binding affinity in units of concentration.
